As a reminder, the stoichiometry N is a count of units in the complex or per binding partner.

These results are taken from PMC6751060 (mBio, 2019).

First the molecules themselves.
B1: RicA residues 1 to 122 (C-terminally truncated, for crystallography) (domain or fragment, B. subtilis, UniProt O31779 1-122, looked up)
chain: MTLYSKKDIVQQARNLAKMISETEEVDFFKRAEAQINENDKVSTIVNQIKALQKQAVNLKHYEKHEALKQVEAKIDALQEELEEIPVIQEFRDSQMEVNDLLQLVAHTISNQVTNEIITSTG
notes: also called truncated RicA; RicA (amino acids 1 to 122)

Data set [1] concerns the target RicA of Bacillus anthracis (B. anthracis). Nature of the data set: AUC.
The data set “crystal structure” concerns the molecule itself. Nature of the data set: crystal structure.
In data set [2] the target is B1. Nature of the data set: crystal structure; RicAF crystals; hanging drop, 18% PEG 500 MME, 8% MPD, 100 mM sodium nitrate, 100 mM MOPS, sodium HEPES pH 7.3. The settings on record: both partners purified.
Data set [3] concerns the target T1, RicF (YlbF) of Bacillus subtilis (B. subtilis, UniProt O34412 1-149).
T1 construct: also called RicF^Bsu
T1 sequence (looked up): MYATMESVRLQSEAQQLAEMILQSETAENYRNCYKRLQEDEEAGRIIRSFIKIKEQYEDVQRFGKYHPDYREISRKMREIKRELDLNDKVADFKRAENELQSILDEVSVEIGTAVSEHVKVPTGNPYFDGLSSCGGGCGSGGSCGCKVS
Nature of the data set: pull-down. To be noted: partners not purified.

Data set [4] deals with the molecule itself. Nature of the data set: SEC; […]; 20 mM Tris-HCl pH 8.0, 150 mM NaCl, 1 mM DTT. On the technique in general: SEC sorts molecules by how far they enter the pores of the column.

Consider “RicF of Bacillus anthracis (natural protein)”, for which the stoichiometry N in data set [1] was 1.

Turning to B1, the binding result in the data set “crystal structure” is “binds”.

B2: RicF residues 1 to 121 (C-terminally truncated, for crystallography) (domain or fragment, B. subtilis, UniProt O34412 1-121, looked up)
chain: MYATMESVRLQSEAQQLAEMILQSETAENYRNCYKRLQEDEEAGRIIRSFIKIKEQYEDVQRFGKYHPDYREISRKMREIKRELDLNDKVADFKRAENELQSILDEVSVEIGTAVSEHVKV
notes: also called truncated RicF
Take B2: in data set [2], the binding result is “binds”.

B3: RicA (YmcA) of Bacillus subtilis (natural protein, B. subtilis, UniProt O31779 1-143, looked up)
chain: MTLYSKKDIVQQARNLAKMISETEEVDFFKRAEAQINENDKVSTIVNQIKALQKQAVNLKHYEKHEALKQVEAKIDALQEELEEIPVIQEFRDSQMEVNDLLQLVAHTISNQVTNEIITSTGGDLLKGETGSKVKHSNNSCSL
notes: also called RicA^Bsu
As to B3, in data set [3], the binding result is given as “binds”.

B4: RicA (YmcA) of Bacillus subtilis, expressed alone and purified (natural protein, B. subtilis)
chain: MTLYSKKDIVQQARNLAKMISETEEVDFFKRAEAQINENDKVSTIVNQIKALQKQAVNLKHYEKHEALKQVEAKIDALQEELEEIPVIQEFRDSQMEVNDLLQLVAHTISNQVTNEIITSTGGDLLKGETGSKVKHSNNSCSL
notes: also called RicA dimer; GST-RicA
As to B4, in data set [4], the “stoichiometry N” value came to 2.
